Results as given in PMC128837 (BMC Biochemistry, 2002).

Biological target: T1, HA-Pop1p/His-Myc-Pop2p complexes (S. pombe, UniProt P87060 1-775; O14170 1-703)
T1 sequence 1: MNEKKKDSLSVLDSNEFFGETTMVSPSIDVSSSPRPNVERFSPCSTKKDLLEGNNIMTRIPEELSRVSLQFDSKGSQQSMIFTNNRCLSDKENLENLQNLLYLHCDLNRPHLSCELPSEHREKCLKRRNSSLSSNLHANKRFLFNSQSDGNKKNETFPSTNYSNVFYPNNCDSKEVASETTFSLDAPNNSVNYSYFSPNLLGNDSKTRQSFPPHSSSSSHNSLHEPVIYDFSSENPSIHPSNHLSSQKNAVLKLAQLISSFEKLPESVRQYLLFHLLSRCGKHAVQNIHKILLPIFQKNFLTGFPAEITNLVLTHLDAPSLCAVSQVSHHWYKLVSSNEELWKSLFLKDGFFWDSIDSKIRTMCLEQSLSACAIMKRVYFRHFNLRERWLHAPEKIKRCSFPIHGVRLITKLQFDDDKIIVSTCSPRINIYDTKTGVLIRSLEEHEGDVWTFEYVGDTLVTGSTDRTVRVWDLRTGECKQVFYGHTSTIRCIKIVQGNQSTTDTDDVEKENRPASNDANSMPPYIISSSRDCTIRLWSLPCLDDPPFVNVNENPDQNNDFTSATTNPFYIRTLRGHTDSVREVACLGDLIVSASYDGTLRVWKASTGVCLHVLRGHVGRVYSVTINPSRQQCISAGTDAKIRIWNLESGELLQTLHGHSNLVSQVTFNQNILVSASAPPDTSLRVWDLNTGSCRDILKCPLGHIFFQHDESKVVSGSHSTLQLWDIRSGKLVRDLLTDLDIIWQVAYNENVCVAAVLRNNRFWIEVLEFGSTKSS
T1 sequence 2: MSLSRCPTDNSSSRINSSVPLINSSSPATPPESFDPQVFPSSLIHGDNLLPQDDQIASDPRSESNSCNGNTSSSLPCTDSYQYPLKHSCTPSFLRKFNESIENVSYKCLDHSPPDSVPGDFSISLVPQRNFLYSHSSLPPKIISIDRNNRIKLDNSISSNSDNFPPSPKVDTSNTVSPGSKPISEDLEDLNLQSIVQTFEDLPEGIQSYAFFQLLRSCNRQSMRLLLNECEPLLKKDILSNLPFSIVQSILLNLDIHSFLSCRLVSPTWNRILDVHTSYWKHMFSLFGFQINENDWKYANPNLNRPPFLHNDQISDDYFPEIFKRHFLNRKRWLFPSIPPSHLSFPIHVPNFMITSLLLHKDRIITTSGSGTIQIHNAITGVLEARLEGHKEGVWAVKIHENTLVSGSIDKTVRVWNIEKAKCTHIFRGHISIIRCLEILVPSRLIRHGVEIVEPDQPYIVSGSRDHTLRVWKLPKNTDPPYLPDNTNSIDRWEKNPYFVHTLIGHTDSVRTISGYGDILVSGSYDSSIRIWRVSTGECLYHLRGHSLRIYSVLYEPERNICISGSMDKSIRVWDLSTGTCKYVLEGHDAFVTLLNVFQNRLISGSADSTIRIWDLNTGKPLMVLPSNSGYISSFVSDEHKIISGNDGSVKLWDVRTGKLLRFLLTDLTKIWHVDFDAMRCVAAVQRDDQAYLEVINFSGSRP
Assay: pull-down

B1: bacterially expressed, phosphorylated Rum1p (natural protein)
chain: MEPSTPPMRGLCTPSTPESPGSFKGVIDASLEGNSSIMIDEIPESDLPAPQVSTFPPTPAKTPKKQLLPNLMLQDRSNSLERCMEEDREHNPFLSSSDNQLLSRKKRKPTPPPSDGLYYVFRGKRIKKSFRPGTDLSTFKPKLLFADSAPSSSSDNPTSSVDLNDYSQIGILPPNLNSIGNKMFSLKSRVPSSSSGSFVAPPPQMRLPAYSSPQKSRSNTKDENRHNLLR
modifications: phosphorylated by Cdc2p/Cig1p complexes with radiolabeled ATP; residues not stated for this preparation
- binding result: binds
